Earlier results on 2 molecules are cited in patent US20200069786A1, “COMPOSITION AND PROCESS FOR PREPARING VACCINE” (TREOS BIO ZRT., priority 2018, published 2020).

Like-named read-outs stand apart in the source and are kept apart here.

In the data set the test system is TSA.
The mark [1] stands for this setting: TSA expression rate in BLADDER cancer.
[2] abbreviates: TSA expression rate in Esophageal.
[3] abbreviates: TSA expression rate in HEAD and NECK.
Where [4] appears, read: TSA expression rate in MELANOMA
The mark [5] stands for this setting: TSA expression rate in PROSTATE cancer.

B1: TDRD1 (protein, UniProt Q9BXT4 1-1180, looked up)
Tudor domain-containing …: MSVKSPFNVMSRNNLEAPPCKMTEPFNFEKNENKLPPHESLRSPGTLPNHPNFRLKSSENGNKKNNFLLCEQTKQYLASQEDNSVSSNPNGINGEVVGSKGDRKKLPAGNSVSPPSAESNSPPKEVNIKPGNNVRPAKSKKLNKLVENSLSISNPGLFTSLGPPLRSTTCHRCGLFGSLRCSQCKQTYYCSTACQRRDWSAHSIVCRPVQPNFHKLENKSSIETKDVEVNNKSDCPLGVTKEIAIWAERIMFSDLRSLQLKKTMEIKGTVTEFKHPGDFYVQLYSSEVLEYMNQLSASLKETYANVHEKDYIPVKGEVCIAKYTVDQTWNRAIIQNVDVQQKKAHVLYIDYGNEEIIPLNRIYHLNRNIDLFPPCAIKCFVANVIPAEGNWSSDCIKATKPLLMEQYCSIKIVDILEEEVVTFAVEVELPNSGKLLDHVLIEMGYGLKPSGQDSKKENADQSDPEDVGKMTTENNIVVDKSDLIPKVLTLNVGDEFCGVVAHIQTPEDFFCQQLQSGRKLAELQASLSKYCDQLPPRSDFYPAIGDICCAQFSEDDQWYRASVLAYASEESVLVGYVDYGNFEILSLMRLCPIIPKLLELPMQAIKCVLAGVKPSLGIWTPEAICLMKKLVQNKIITVKVVDKLENSSLVELIDKSETPHVSVSKVLLDAGFAVGEQSMVTDKPSDVKETSVPLGVEGKVNPLEWTWVELGVDQTVDVVVCVIYSPGEFYCHVLKEDALKKLNDLNKSLAEHCQQKLPNGFKAEIGQPCCAFFAGDGSWYRALVKEILPNGHVKVHFVDYGNIEEVTADELRMISSTFLNLPFQGIRCQLADIQSRNKHWSEEAITRFQMCVAGIKLQARVVEVTENGIGVELTDLSTCYPRIISDVLIDEHLVLKSASPHKDLPNDRLVNKHELQVHVQGLQATSSAEQWKTIELPVDKTIQANVLEIISPNLFYALPKGMPENQEKLCMLTAELLEYCNAPKSRPPYRPRIGDACCAKYTSDDFWYRAVVLGTSDTDVEVLYADYGNIETLPLCRVQPITSSHLALPFQIIRCSLEGLMELNGSSSQLIIMLLKNFMLNQNVMLSVKGITKNVHTVSVEKCSENGTVDVADKLVTFGLAKNITPQRQSALNTEKMYRMNCCCTELQKQVEKHEHILLFLLNNSTNQNKFIEMKKLLKS
As for B1, the “TSA Expression Rate (ER)” value is recorded as 38% (BREAST) and 0% (THYROID). The “Expression Rate (ER) %” value under setting [1] is 29%; the “Expression Rate (ER) %” value (TSA expression rate in CRC) is listed as 0%; the “Expression Rate (ER) %” value under setting [2] is given as 10%; the “Expression Rate (ER) %” value under setting [3] is on record as 22%; the “Expression Rate (ER) %” value (TSA expression rate in Kidney) is 0%; the “Expression Rate (ER) %” value (TSA expression rate in LUNG cancer) is recorded as 5%. In addition, the “Expression Rate (ER) %” value under setting [4] was 0% and the “Expression Rate (ER) %” value under setting [5] was 47%.

B2: MAGE-C2 (protein, UniProt Q9UBF1 1-373, looked up)
Melanoma-associated antigen C2: MPPVPGVPFRNVDNDSPTSVELEDWVDAQHPTDEEEEEASSASSTLYLVFSPSSFSTSSSLILGGPEEEEVPSGVIPNLTESIPSSPPQGPPQGPSQSPLSSCCSSFSWSSFSEESSSQKGEDTGTCQGLPDSESSFTYTLDEKVAELVEFLLLKYEAEEPVTEAEMLMIVIKYKDYFPVILKRAREFMELLFGLALIEVGPDHFCVFANTVGLTDEGSDDEGMPENSLLIIILSVIFIKGNCASEEVIWEVLNAVGVYAGREHFVYGEPRELLTKVWVQGHYLEYREVPHSSPPYYEFLWGPRAHSESIKKKVLEFLAKLNNTVPSSFPSWYKDALKDVEERVQATIDTADDATVMASESLSVMSSNVSFSE
Regarding B2, the “TSA Expression Rate (ER)” value runs as follows: (BRAIN) 34%; (BREAST) 19%; (HCC) 37%; (LUNG) 27%; (THYROID) 0%. The “Expression Rate (ER) %” value is 19% under setting [1]; 4% (TSA expression rate in CRC); 11% under setting [2]; 10% (TSA expression rate in GASTRIC cancer); 29% under setting [3]; 37% (TSA expression rate in LEUKEMIAS). Besides, the “Expression Rate (ER) %” value is given as 0% (TSA expression rate in LYMPHOMAS), 45% under setting [4], 40% (TSA expression rate in PEDIATRIC) and 6% under setting [5].
